For the assay, the target named is Human-TNFR2-His (manufacturer: SINO, CAT: 10417-H08H) (human) (UniProt P20333). Put plainly: flow cytometry, bridging: CHOK1-18.2 cells (human Claudin18.2) + 150 nM isotype control + human TNFR2-His, anti-His FITC detection; irrelevant antibody (blank 13476). (In general: A flow cytometer gives signals particle by particle.)

As to “Human IgG1 kappa Isotype control (Sino Biological, Cat. No.: HG1K) (antibody)”, the E1 Mean FITC-A amounted to 14400.

The values are drawn from US20260055188A1.
